Bridges are numbered along the chain shown (N, C = ends). Where no end group is shown, it is not given here.
Columns and labels:
Type in all cases: in vivo
[1] = Acute toxicity in the mouse, ICR
Procedure: (§1) Animal: mouse (ICR, Swiss Albino and BDF1)
(§2) ICR (female, average body weight 25.0 g, age 5-6 weeks), Swiss Albino (female, average body weight 22.3 g, 5-6 weeks) and BDF1 (female, average body weight 21.5, 6 weeks) were divided into 6 groups consisting of 6 mice each, and predetermined amounts of SPH dissolved in 0.2 ml of physiological saline were administered intraperitoneally.

[2] = Acute toxicity in the mouse, Swiss Albino
Procedure: as §1, §2

[3] = Acute toxicity in the mouse, BDF1
Procedure: as §1, §2

[4] = Acute toxicity in the mouse, overall statement
Procedure: as §1, §2
Because the long term toxicity of SPH is low, the condition of the survival mice after recovery is similar to that of the control.

## KSCCRSTLGRNCYNLCRVRGAQKLCAGVCRCKLTSSGKCPTGFPK (disulfide 3-39, 4-31, 12-29, 16-25) [SPH]
[1]; 0.68 mg/Kg i.p.
  No. died (numerator): 0/6
[1]; 1.36 mg/Kg i.p.
  No. died (numerator): 1/6
[1]; 2.04 mg/Kg i.p.
  No. died (numerator): 4/6
[1]; 2.72 mg/Kg i.p.
  No. died (numerator): 6/6
[1]; i.p.
  LD50: 1.81 mg/kg
[2]; 0.50 mg/Kg i.p.
  No. died (numerator): 0/6
[2]; 1.00 mg/Kg i.p.
  No. died (numerator): 1/6
[2]; 1.50 mg/Kg i.p.
  No. died (numerator): 4/6
[2]; 2.00 mg/Kg i.p.
  No. died (numerator): 6/6
[2]; i.p.
  LD50: 1.33 mg/kg
[3]; 1.00 mg/Kg i.p.
  No. died (numerator): 0/6
[3]; 1.50 mg/Kg i.p.
  No. died (numerator): 2/6
[3]; 2.00 mg/Kg i.p.
  No. died (numerator): 6/6
[3]; 3.00 mg/Kg i.p.
  No. died (numerator): 6/6
[3]; i.p.
  LD50: 1.58 mg/kg
[4]; mouse, i.p., overall from Table 3
  LD50: about 1.5 mg/Kg
[4]; surviving mice after recovery similar to control
  long term toxicity: low
